The text below walks through data of paper doi:10.1101/2020.08.27.270058.

As a reminder, the Kd is the free concentration of one partner at which half of the binding sites on the other are occupied at equilibrium, for simple one-to-one binding. Read a low Kd as a tighter complex. Broadly, the stoichiometry N is the number of molecules, sites or subunits per partner or assembly.

For assay [1], the target named is MglB (Myxococcus xanthus) (UniProt Q1DB03). Kind of assay: ITC. On the technique in general: ITC needs no label: the signal is the heat of the interaction.
Assay [2] concerns the target MglC (Myxococcus xanthus). Kind of assay: SAXS.
For assay [3], the target named is MglB (Myxococcus xanthus) (UniProt Q1DB03). Nature of the assay: SAXS.
Assay [4] has as its target MglC (Myxococcus xanthus). Kind of assay: SEC. Background: Size exclusion chromatography separates by hydrodynamic size, large species first.
In assay [5] the target is MglB (Myxococcus xanthus) (UniProt Q1DB03). Nature of the assay: SEC.
Assay [6] addresses T1, MglB (Myxococcus xanthus), Q1DB03.
T1 chain: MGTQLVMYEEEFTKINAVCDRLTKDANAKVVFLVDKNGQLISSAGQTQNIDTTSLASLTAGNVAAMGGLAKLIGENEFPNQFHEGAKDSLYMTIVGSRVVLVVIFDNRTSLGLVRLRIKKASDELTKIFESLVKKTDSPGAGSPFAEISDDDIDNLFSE
Kind of assay: SAXS. The conditions noted are these: remark: other sources report otherwise.

The target is the same in assay [7]. Nature of the assay: SEC. The conditions noted are these: remark: other sources report otherwise.

Take MglC (natural protein): in assay [1], the Kd worked out at 625 nM. This molecule also returned a dH in assay [1] of 6940 cal/mol. In addition, the stoichiometry N in assay [1] is 0.5; in assay [2], 2; in assay [4], 2. Besides, the stoichiometry N (MglC:MglB (2:4)) in assay [3] and in assay [5] was 0.5 in each case.

B1: MglB, Q1DB03 1-159 (natural protein)
chain: MGTQLVMYEEEFTKINAVCDRLTKDANAKVVFLVDKNGQLISSAGQTQNIDTTSLASLTAGNVAAMGGLAKLIGENEFPNQFHEGAKDSLYMTIVGSRVVLVVIFDNRTSLGLVRLRIKKASDELTKIFESLVKKTDSPGAGSPFAEISDDDIDNLFSE
As to B1, the stoichiometry N in assay [6] and in assay [7] was 2 each time.
